According to US20110171749A1:

Biological target: streptavidin (UniProt P22629)
Test: polyaniline polymeric wire biosensor, streptavidin on NC membrane, pulse mode voltammetry

Q: With “biotin conjugate goat anti-mouse IgG (whole molecule), conjugated with magnetic composite Fe2O3/polyaniline particles (antibody)” as the substance, how does the resistance read?
A: 4.3 kΩ
